Experiments:
Experiment in all cases: cell-based or functional assay
[1] = biological target: XGEVA (Amgen), human IgG2
[2] = biological target: Humira (Abbvie), human IgG1
[3] = biological target: human IgG3 from Sigma (15654 Lot #SLBW0899) (human)
[4] = biological target: XGEVA (Amgen), human IgG2; remark: listed apart in the source
[5] = biological target: Humira (Abbvie), human IgG1; remark: listed apart in the source
[6] = biological target: human IgG4 from Abcam (ab90286 Lot #GR3180469) (human)

Row | Binder | Approximate EC50 value, i.e. equal amounts of scIgG and F(ab')2 (SDS-PAGE) [1] | Conc. of enzyme for cleavage of 1st IgG2 heavy chain, IgG to scIgG (SDS-PAGE) [1] | Conc. of enzyme for cleavage of 2nd IgG2 heavy chain, scIgG to F(ab)2 (SDS-PAGE) [1] | Approximate EC50 value, i.e. equal amounts of scIgG and F(ab')2 (SDS-PAGE) [2] | Conc. of enzyme for cleavage of 1st IgG1 heavy chain, IgG to scIgG (SDS-PAGE) [2] | Conc. of enzyme for cleavage of 2nd IgG1 heavy chain, scIgG to F(ab')2 (SDS-PAGE) [2] | IgG3 EC50 F(ab')2 (SDS-PAGE, visual estimate) [3] | IgG3 EC50 scIgG (SDS-PAGE, visual estimate) [3] | IgG2 EC50 F(ab')2 (SDS-PAGE, visual estimate) [4] | IgG2 EC50 scIgG (SDS-PAGE, visual estimate) [4] | IgG1 EC50 F(ab')2 (SDS-PAGE, visual estimate) [5] | IgG1 EC50 scIgG (SDS-PAGE, visual estimate) [5] | IgG4 EC50 F(ab')2 (SDS-PAGE, visual estimate) [6] | IgG4 EC50 scIgG (SDS-PAGE, visual estimate) [6]
1 | pCART207, a variant IdeZ polypeptide (enzyme) MDDYQRNATEAYAKEVPHQITSVWTKGVTPPEQFTQGEDVIHAPYLAHQGWYDITKAFDGKDNLLCGAATAGNMLHWWFDQNKTEIEAYLSKHPEKQKIIFRNQELFDLKAAIDTKDSQTNSQLFNYFRDKAFPNLSARQLGVMPDLVLDMFINGYYLNVFKTQSTDVNRPYQDKDKRGGIFDAVFTRGDQTTLLTARHDLKNKGLNDISTIIKQELTEGRALALSHTYANVSISHVINLWGADFNAEGNLEAIYVTDSDANASIGMKKYFVGINAHGHVAISAKKIEGENIGAQVLGLFTLSSGKDIWQKLS | ~1.1 µg/mL | ~40 ng/mL | ~3300 ng/mL | ~0.04 µg/mL | ~1.5 ng/mL | ~120 ng/mL |  |  |  |  |  |  |  | 
2 | pCART229, a variant IdeZ polypeptide (enzyme) MDDYQRNATEAYAKEVPHQITSVWTKGVTPPEQFTQGEDVIHAPYLAHQGWYDITKAFDGKDNLLCGAATAGNMLHWWFDQNKTEIEAYLSKHPEKQKIIFRNQELFDLKAAIDTKDSQTNSQLFNYFRDKAFPNLSARQLGVMPDLVLDMFINGYYLNVFKTQSTDVNRPYQDKDKRGGIFDAVFTRGNQTTLLTARHDLKNKGLNDISTIIKQELTEGRALALSHTYANVSISHVINLWGADFNAEGNLEAIYVTDSDANASIGMKKYFVGINAHGHVAISAKKIEGENIGAQVLGLFTLSSGKDIWQKLS | ~1.1 µg/mL | ~40 ng/mL | ~3300 ng/mL | ~0.04 µg/mL | ~1.5 ng/mL | ~120 ng/mL |  |  |  |  |  |  |  | 
3 | N240, a variant IdeZ polypeptide of the invention (enzyme) MDDYQRNATEAYAKEVPHQITSVWTKGVTPPEQFTQGEDVIHAPYLAHQGWYDITKAFNGKDDLLCGAATAGNMLHWWFDQNKTEIEAYLSKHPEKQKIIFRNQELFDLKAAIDTKDSQTNSQLFNYFRDKAFPNLSARQLGVMPDLVLDMFINGYYLNVFKTQSTDVNRPYQDKDKRGGIFDAVFTRGNQTTLLTARHDLKNKGLNDISTIIKQELTEGRALALSHTYANVSISHVINLWGADFNAEGNLEAIYVTDSDANASIGMKKYFVGINAHGHVAISAKKIEGENIGAQVLGLFTLSSGKDIWQKLS |  |  |  |  |  |  | 0.015 µg/mL | 0.007 µg/mL | 0.12 µg/mL | 0.0046 µg/mL | 0.014 µg/mL | 0.0005 µg/mL | 0.062 µg/mL | 0.002 µg/mL
4 | pCART242, a variant IdeZ polypeptide of the invention (enzyme) MSVWTKGVTPPEQFTQGEDVIHAPYLAHQGWYDITKAFNGKDDLLCGAATAGNMLHWWFDQNKTEIEAYLSKHPEKQKIIFRNQELFDLKAAIDTKDSQTNSQLFNYFRDKAFPNLSARQLGVMPDLVLDMFINGYYLNVFKTQSTDVNRPYQDKDKRGGIFDAVFTRGNQTTLLTARHDLKNKGLNDISTIIKQELTEGRALALSHTYANVSISHVINLWGADFNAEGNLEAIYVTDSDANASIGMKKYFVGINAHGHVAISAKKIEGENIGAQVLGLFTLSSGKDIWQKLSGGGHHHHHH |  | ~10 ng/mL | ~400 ng/mL |  | ~1.5 ng/mL | ~40 ng/mL |  |  |  |  |  |  |  | 

— patent publication US20260028608A1 (HANSA BIOPHARMA, published 2026)
